In article PMC9687537 one finds ratio to parent data, which are given here for twelve substances.

In the experiment the target is DYNC2H1 [human (endogenous in RPE1)]. The experiment is described as follows: GFP-trap purification, TMT-labelling and mass spectrometry. To be noted: RPE1 WDR34 KO cell lines expressing GFP proteins, serum-starved for 24 h; read off a plot.

On to “GFP–WDR34-WT mutant S410I [human] / DYNC2H1 [human (endogenous in RPE1)] chain 1 S410I”, for which the ratio to parent was 0.45. As to “GFP–WDR34-WT mutant R182W [human] / DYNC2H1 [human (endogenous in RPE1)] chain 1 R182W”, the ratio to parent turned out to be 2. As to “GFP–WDR34-WT mutant T354M [human] / DYNC2H1 [human (endogenous in RPE1)] chain 1 T354M”, the ratio to parent was determined as 0.22. As to “GFP–WDR34-WT mutant K436R [human] / DYNC2H1 [human (endogenous in RPE1)] chain 1 K436R”, the ratio to parent came out at 2. With “GFP–WDR34-WT mutant A341V [human] / DYNC2H1 [human (endogenous in RPE1)] chain 1 A341V”, the ratio to parent turned out to be 2. As to “GFP–WDR34-WT mutant P390L [human] / DYNC2H1 [human (endogenous in RPE1)] chain 1 P390L”, the ratio to parent amounted to 1.6.

Consider “GFP–WDR34-WT mutant C148F [human] / DYNC2H1 [human (endogenous in RPE1)] chain 1 C148F”, for which the ratio to parent was 0.55. Then “GFP–WDR34-WT mutant R447Q [human] / DYNC2H1 [human (endogenous in RPE1)] chain 1 R447Q”, with 0.62; and “GFP–WDR34-WT mutant A22V [human] / DYNC2H1 [human (endogenous in RPE1)] chain 1 A22V”, with 0.93. With “GFP–WDR34-WT mutant G393S [human] / DYNC2H1 [human (endogenous in RPE1)] chain 1 G393S”, the ratio to parent is 0.3. “GFP–WDR34-WT mutant R447W [human] / DYNC2H1 [human (endogenous in RPE1)] chain 1 R447W”: the ratio to parent amounted to 0.93. Then “GFP–WDR34-WT mutant R206C [human] / DYNC2H1 [human (endogenous in RPE1)] chain 1 R206C”, with 2.7.
